IntAct's records for PubMed 16280320

B1: Dolichol-phosphate mannosyltransferase subunit 3 (Cricetulus griseus (Chinese hamster)), Q4LDX8 (parent)
chain: MTKLAQWLWGLALLGSAWAALTMGALGLELPFPCQEVLWPLPAYLLVSAGCYALGTVGYRVATFHDCEDAARELQSQILEARADLARRGLRF

Variants of: B1
Conditions: with dpm1_human DPM1, O60762
Sequence of dpm1_human DPM1, O60762 (O60762 whole entry): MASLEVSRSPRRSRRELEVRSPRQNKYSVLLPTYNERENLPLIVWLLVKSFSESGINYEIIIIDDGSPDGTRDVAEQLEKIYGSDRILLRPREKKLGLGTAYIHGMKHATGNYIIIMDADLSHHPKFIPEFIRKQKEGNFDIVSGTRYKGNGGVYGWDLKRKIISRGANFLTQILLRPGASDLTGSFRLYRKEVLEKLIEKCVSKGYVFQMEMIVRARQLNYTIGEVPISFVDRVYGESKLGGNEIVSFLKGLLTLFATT

Variant	effect of a mutation on the interaction
L74S;I78T;L85S	disrupting interaction
